# Reference: the nanobody polyreactivity screen of Harvey et al. (2022)
# Experiment: yeast display, Sf9 membrane polyspecificity reagent, FACS + sequencing; frameworks hold sequencing errors
# Summary of the method: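 Nanobodies from a synthetic yeast display library (Saccharomyces cerevisiae BJ5465), induced 36–48 hours with galactose, were stained 1 hour at 4 °C with 10% biotinylated, detergent-solubilized Sf9 membrane reagent, enriched on streptavidin microbeads, then FACS-sorted. Anti-HA (expression) and streptavidin (reagent binding) fluorescence set low and high (top ~1%) gates. Polyreactivity labels come from the gate of origin. Genes were colony-PCR amplified, MiSeq 2 × 250 sequenced and filtered by CDR length.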
row,Sequence,polyreactivity (PSR sort gate)
1,QVQLVEAGGGLVQAGGSLRLTCAASGPIFLSKAMGWYRQAPGTERELVAAINSGGNTDYADSVKARFTISRDNEKNTFYLQMNSLKPEDTAVYYCAADAFSWDHDYWGQGTQVTVSS,low polyreactivity
2,QVQLVESGGGLVQAGGSLRLSCAASGSIFWNNAMGWYRQAPGKERELVAAISKSGTRTYYADSVKGRFTISRDNAKNTFYLQMNSLKPEDTAVYYCAKDPYGRLQPRPRFGYWGQGTQVTVSS,high polyreactivity
3,QVQLVESGGGLVQAGGSLRLSCAASGITFVRNAKGWYRPAPGTERELVAAISSGGSTYYADSVKGRFTISRDNAKNTVYLQMNSLKPEDTAVYYCAVLSSWRFSGYDYWGQGTQVTVSS,low polyreactivity
4,QVQLVESGGGLVQAGGSLRLSCAASGFIFNFYAMGLYRQAPGKERELVAAISRSGGGTYYADSVKGRFTISRDNAKYTVYFQMNSLKPEDTAVYSCNVDKYRIVGFHSPYDYWGQGTQVTVSS,high polyreactivity
5,QVQLVESGGGIVQAGGSLRLSSAASGSTFYAYTMGWYRQAPGKERELVAAISSGGGTYYADSVKGRFTISRDNAKNTVYLQMNSLKPEDTAVYYCNADWRVGRQLSKAKIPYDYWGQGTQVTVSS,low polyreactivity
6,QVQLVESGVGLVKAGGSLRLSCAASGITFGFYAMGWYRQAPGKDRELVASISSRGGSTNYADSVKGRFTISRDNAKNTVYLQMNSLKPEDTAVYYCAVAWLVRGGGGRRTFYSWGQGTQVTVSS,high polyreactivity
7,QVQLVESGGGLVQAGGSLRLSCAASGRTFRPYAMGWYRQAPGKERELVAAITSCGSTYYADSVKGRFTISRDNAKNTVYLQMNSLKPEDTAVYYCNAKYYYQPPYDYWGQGTQVTVSS,low polyreactivity
8,QVQLVESGGGLVQAGGSLRLSCAASGSTFRTNAMGWYRQAPGKERELVAAISGNGGSTYYADSVKGRFTISRDNAKYNVYLQMNSLKAEDTAVYYCAARRGYRYYPPFGYWGQGTQVTVSS,high polyreactivity
9,QVQLVESGGGLVQAGGSLRLICAASGIIFVSNAMGWYRQAPGKERELVATINWSDDSTYYADSVKGRFTISRDNAKYTVYLQMNSLKPEDTAVYYCNARPLRYVESDYWGQGTQVTVSS,low polyreactivity
10,QVQLVESGGGLVQAGGSLRLSCAASGLTFPVYAMGWYRQAPGKERELVAAISKSGGNTYYADSVKGRFTISRDNAKNTVYLQMNSLKPEDTAVYYCAAGYLSGNYARYGYWGQGTQVTVSS,high polyreactivity
11,QVQLVESGGGLVQAGGSLRLSCAPSGFIITYFGMGWYRQAPGKERELVAAISSRGGSTYYADSVKGRFTISRDTAKNTVYLQMNSLKPEDTAVYYFNTDSYRWTFSNRRYDYWGQGTQVTVSS,high polyreactivity
12,QVQLVESGGGLVQAGGSLRLSCAASRRTYWYNAMGWYRQSPGKERELVAAISRAGRTYYADSVKGRFTISRDNAKNTVYIQMNSLKPEDTAVYYCNVVLFGDSGNLQYYYWGQGTQVTVSS,high polyreactivity
13,QVQLVESGGGLVQAGGSLRLSCAASGGIFDTNAMGWSRQAPGKERELVAAIRGSGGTYYADSVKGRFTISRDNAKNTVYLQMNSLKPEDTAVYYCATRTYRVLAGSAWYHYNYWGQGTQVTVSS,high polyreactivity
14,QVQLVESGRGLVQAGGSLRLSCAASGFTLICNARGCYRQAPGKERELVAAITWSGGSTYYADSVKGRFTISRDKAKNTVYLQMNSLKPEDTAVYYCAADYSIQSNDDWGQGTQVTVSS,low polyreactivity
15,QVQLVESGGGLVQAGGSLRLSCAASGSTFSRYAMRWYRQAPGKEMELVAAISSRGGSTYYADSVKGRFTISRDNAMNTVYLQMNSLKPEDTAFYYCAVKSYRLTGRGYWGQGTQVTVSS,high polyreactivity
16,QVQLVESGGGLVQAGGSLRLSCAASGFIFRYYAMGWYRQAPGKERELVAAITSDGSTYYADSVKGRFTISRDNAKNTVYLQMNSLKPEDTAVYYCARSVYRFYLKTRASDYWGQGTQETVSS,high polyreactivity
17,QVQLVESGGGLVQAGGSLRLSCAASGFTFYHNALGWYRQAPGKERELVATITARGGRTYYADSVKGRFTISRDNAKNTVYLQMNSLKPEDTAVYYCNVKASRGYTYEYDYWGQGTQVTVSS,high polyreactivity
18,QVQLVESGGGLVQAGGSLRLSCAASGSTFEVNAMGWYRQAPGKERELVASITDGGITNYADSVKVRFTISRDNAKNTVYLQMNSLKPEDTAVYYCAAVGWYYSYYYFWGGYWGQGTQVTVSS,high polyreactivity
19,QVQLVESCGGLVQAGGSLRLSCAASGFIFSQNAMGWYIQAPGKEREIVAVISARGGRTYYADSVKGRFTISRDNAKNTVYLQMNSLKPEDTAVYDCARRDFWWSRRIFGYWGQGTQVTVSS,high polyreactivity
20,QVQLEESGGGLVQAGGSLRLSCAASGSTYYYYAMGWYRQAPGKERELVAAISRSGITYYADSVKGRFTISRDNAKNTVYLQMNSLKPEDTAVYYCAAGRRFDQSMYYWGQGTQVTVSS,high polyreactivity
21,QVQLVESGGGLVQAGGSLRLSCAASGFTFAYYAMGWYRQAPGKERELVAAISYSGGSTYYADSVKGRFTISRDNAKNTVYLQMNSLKPEDTAVYYCAAEAGRRYNWGYDYWGQGTQVTVSS,high polyreactivity
22,QVQLVESGGGLVQAGGTLRFSCAATGSIFDPYARGWYRQAPGKEREFVAAITYTGGDTHYADSVKGRFSISRDKAKNTVYLQLNSLKPEDSAVYYFAAVYYRGIQSYDYWGQGTQVTVSS,low polyreactivity

row,Sequence,polyreactivity (PSR sort gate)
1,QVQLVESGGGLVQAGGSLRFSCAASGITIRFYAMGWYRQAPGKERELVAAITRGGSTTYAHSVKGRFTISRDNAKNTVYLQMNSLKPEDTEVSYCNAQYQSGYYTSYPDRFDTWGQGTQVTVSS,low polyreactivity
2,QVQLVESGGGLVQAGGSLRLSCAASGSIFYPYAMGWYRQAPGKERELVAAISYSGGSTYYADSVKGSFTISRDNAKNTVYLQMNSLKPEDTAVYYCNRRYWRRPYYKYDYWGQGTQVTVSS,high polyreactivity
3,QVQLVESGGGLVQAGGSLRLSCAASGFIFRDNAMGWYRQAPGKERELVAAISKSGGRTYYADSVKGRFTISRDNAKNTVYLLMNSLKPEDTAVYYCAADTYYNLGNYWGQGTQVTVSS,high polyreactivity
4,QVQIVESGGGLVQAGGSLRISCAATGSTFDSFAMGWYRQAPGKERELVDAITRRGTRTYYADSVKGRFTISRDNAKNTVYLQRNSLKPEDTAVYYCNAVTQCSKTPGYGFNYWGQGTQVTVSS,high polyreactivity
5,QVQLVESGGGLVQAGGSLRLSCAASGITFWKYAMGWYRQAPGKERELVAAISKSGGSTYYADSVKGRFTISRDNAKNTVYLQMNSLKPEDTAVYYCAAYPQFWYWDYNYWGQGTQVTVSS,high polyreactivity
6,QVQLVESGGGLVQAGGSLRLSCAASGRTVWGYGMGWYRQAPGKERELVATISSGGSTYYADSVKGRFTISRDNAKNTVYLQMNSLKPEDTAVYYCAARPPRTYWRYQSDYWGLGTQVTVSS,high polyreactivity
7,LVHHVESGGGLVQAGRSLRLTCAASGGTFFSNAMGWYRQSPGKERELVAGITSGGRTYYADAVKGRFTISRDNAMNTVYLQMNSMKPEDTAVFYCAAERFTRKYNYWGQGTQVTLSS,high polyreactivity
8,QVQLVESRGGLVQAGGSLRLSCAASGRTFTLNAMGWYRQAPGKERELVARIDWRGITYADSVKGRFTISRDNAKNTVYLQMNSLKPEDTAVYYCAADYVQGFGFYYQWHYDYWGQGTQVTVSS,low polyreactivity
9,QVQLVESGGGLVQAGGSLRLSCAASGITFRYSAMGWYRQAPGKERELVAVISTSGGSTYYADSVKGRFTISRDNAKNTVYLQMNSLKPEDTAVYYCAARYTYWGLLRYDYWGQGTQVTVSS,high polyreactivity
10,QVQLVESGGGLVQAGGSLRLSCAASGRIFRYYMRWYRQAPGKERKLVAVISSGGRTKYADSVKGRFTISRDNAKNTVYLQMNILKPQDTAVYYCAARYPREAAYVFDYWGQGTLVTVSS,high polyreactivity
11,QVQLVESGGGLVQAGGSLRLSCAASGRTFSWYVMGWSRQAPGKERALVAAISWNGGRTYYADSVKGRFTISRDNAKNTVYLQMNRLKPEDTAVYYCATGPDPKYDYWGQGTQVTVSS,high polyreactivity
12,QVQLVESGGGLVQAGGSLGLSCAASGFTFRNYAMGCYRQAPGKERELVATLSASSGSTYYADSVKGRFTISRDNAKNTVYLQMNSLKPEDTAVYYCAAGLSGYSRKMYYWGQGTQVTESS,high polyreactivity
13,HVQLVESGGGLVQAGGSLRLSCAASGIIFIGNAMGWYSQAPGKERELVAAISRRGGRTYYADSVKGRFTISRDNAKNTVYLQMNSLKPEDTAVYYCNAEISVNDDDYWGQGTQVTVSS,high polyreactivity
14,QVQLVESGGGLVQAGGSLRLSCAASGSTFGKNAMGWYRQAPGKERELVASITWRGGSTYYADSVKGRFTISRDNAKNTVYLQMNSLKPEDTAVYYCATKWHIHIGSYKYYYWGHGTQVTVSS,low polyreactivity
15,QVQLVESGGGLVQAGGSLRLSCAASGSIFEYYAMGWYRQAPGKERELVAAISSGGPTYYADSVKGRFTISRDNAKNTVYLQMNSLKPEDTAVYYCNADLWYPDYDYWGQGTQLTVSS,low polyreactivity
16,QVQLVESGGGLVQAGGSLRLSCAASGRILRYNAMGWYRQAPGKERELVAAITRTGGITRYADSVKGRFTISRDNAKNTVSLQMNSLNPQDTAVYYCNTYPRYGYVLSWPQGYDYWGQGTQVTVSS,low polyreactivity
17,QVQLVESGGGLVQAGGSLRLSCAASGSTFGYYAMGWYRQAPGKERELVAAISWSGTRTYYADSVKGRFTISRDNAKNTVYLQMNSLKPEDTAVYYCAVRISRPREYYYWGQGTQVTVSS,high polyreactivity
18,QVQLVESGGGLVQAGGSLRLSCAASGNTIRSYAMGWYRPAPGKERELVAAISGRGGSTYYADSVKGRFTISRDNAKNTVYLEMNSLKPEDTAVNYCAAESRRVNYANDYWGQGTEVTVSS,high polyreactivity
19,QVQLEESGGGLVQAGGSLRLSCAASGRIFSSYAMGWYRQAPGKERELVAAISSSGGRTYYADSVKGRFTISRDNAKNSVYLQMNSLKPEDTAVYYCARVTTGGYEYWGQGTQVTVSS,high polyreactivity
20,QVQLVESGGGLVQAGGSLRLSCAASGRTFYNAMGWYRPAPGKERELVAAISGSGGSTYYADSVKGRFTISRDNAKNTVYLKMNSLKPEDTAVYYCAARSVWWQVSQGNYWGQGTQVTVSS,low polyreactivity
21,QVQLVESGGGLVQAGGILRLSCAASGLIIGEYDMGWYRQAPGKERELVAAMSDRGTSTYYADSVKGRFTISRDNAKNTVDLPMNSLKPEDTAVYYCATDRIYYYSWEYDYWGQGTQVTVSS,low polyreactivity
